B1: preproinsulin peptide C19-A3 (peptide)
peptide: GSLQPLALEGSLQKRGIV
notes: Synthetic peptide; also called PI C19-A3; Proinsulin C19-A3

Molecular target: T1, HLA-DR4 immunoaffinity-purified from Priess EBV-transformed B cells (DRB1*0401)
T1 construct: Detergent-solubilised native protein, purified with the anti-HLA-DR mAb L243; Priess cells also carry DRw53, which the L243 column would not separate; The elution used cells pulsed with preproinsulin; also called soluble HLA-DR4
Assay: competition against 2.5 µM biotinylated invariant chain 98-117 for purified HLA-DR4, L243 capture, DELFIA
Procedure: A further selection step was applied based on the following novel initiative. […] HLA-DR4 molecules used in this assay were purified from resting, unmanipulated Priess cell pellets, using the immunoaffinity column approach described above in method 1.1. […] Plates were incubated for a further 1 hour at room temperature and washed 5 times in TBST. Europium-conjugated streptavidin (Perkin Elmer Ltd., Hounslow, UK) was added at 1 μg/ml in dissociation-enhanced time-resolved fluoroimmunoassays (DELFIA) assay buffer (Wallac Oy, Turku, Finland) and incubated for 45 minutes at room temperature. Wells were washed a further 5 times in TBST and 100 μl DELFIA enhancement solution added to each well. Fluorescent intensity was measured in a DELFIA fluorimeter.

Binder | IC50
EDLQVGQVELGGGPGAGSLQPLAL [preproinsulin peptide C3-C26] | 3000 nM
DLQVGQVELGGGPGAGSLQPLALE [preproinsulin peptide C4-C27] | 3000 nM
GGGPGAGSLQPLALEGSLQK (Synthetic peptide; also called C13-32) [preproinsulin peptide C13-C32] | 5000 nM
B1 | 500 nM
QPLALEGSLQKRGIVEQ (Synthetic peptide) [preproinsulin peptide C22-A5] | 400 nM
